{"source": "patent US20060134087A1", "about": "“ITI-D1 Kunitz domain mutants as hNE inhibitors” (Dyax Corp., priority 1988, published 2006)", "key": {"hNE [1]": {"target": "T1, hNE (Homo sapiens, UniProt P08246)", "T1 sequence (P08246 30-267)": "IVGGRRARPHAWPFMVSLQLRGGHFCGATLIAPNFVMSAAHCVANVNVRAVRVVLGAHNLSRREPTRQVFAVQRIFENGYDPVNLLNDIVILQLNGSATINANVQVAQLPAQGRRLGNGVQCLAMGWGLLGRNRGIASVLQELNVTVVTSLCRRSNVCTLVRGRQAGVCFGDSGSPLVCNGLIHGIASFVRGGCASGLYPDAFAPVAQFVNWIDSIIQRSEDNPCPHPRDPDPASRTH", "experiment": "pH stability, residual hNE inhibitory activity", "type": "physicochemical", "conditions": "37° C., 18 hours; for pH stability: pH 1 to pH 10, 1 μM; for Percent Residual hNE Inhibitory Activity: 1 μM protein", "procedure": "The stability of the proteins to exposure to pH conditions in the range of pH 1 to pH 10 was assessed by maintaining the inhibitors in buffers of defined pH at 37° C. for 18 hours and determining the residual hNE inhibitory activity in the standard hNE-inhibition assay. Proteins were incubated at a concentration of 1 μM. The buffers shown in Table 4 were formulated as described (STOL90) and used in the pH ranges indicated: […]\nProteins were incubated at 37° C. for 18 hours in buffers of defined pH (see text). In all cases protein concentrations were 1 μM. At the end of the incubation period, aliquots of the reactions were diluted and residual hNE-inhibition activity determined."}, "hNE [2]": {"target": "T1, hNE", "experiment": "Resistance to oxidative inactivation by Chloramine-T, residual hNE-inhibition activity", "type": "physicochemical", "conditions": "for Percent Residual hNE-Inhibitory Activity: 20 minutes at RT", "procedure": "At the end of the incubation period, the oxidation reactions were quenched by adding methionine to a final concentration of 4 mM. After a further 10 minute incubation, the quenched reactions were diluted and assayed for residual inhibitor activity in our standard hNE-inhibition assay.\nInhibitors were incubated in the presence of Chloramine-T at the molar ratios indicated for 20 minutes at RT. Oxidation reactions were quenched by adding methionine to a final concentration of 4 mM. Residual hNE-inhibition activity remaining in the quenched reactions is shown as a percentage of the activity observed with no added oxidant."}, "[3]": {"conditions": "Molar Ratio CHL-T:Inhibitor 1.0"}, "[4]": {"conditions": "Molar Ratio CHL-T:Inhibitor 10."}, "[5]": {"conditions": "Molar Ratio CHL-T:Inhibitor .50"}}, "data": [{"substance": "EPI-HNE-3: ITI-D2(3-58) with R15I, I18F, Q19P, L20R; SEQ ID NO 026 (AACNLPIVRGPCIAFFPRWAFDAVKGKCVLFPYGGCQGNGNKFYSEKECREYCGVP; Epi-HNE-3)", "values": [{"measurement": "pH stability", "setting": "hNE [1]", "value": "stable when incubated at low pH, but showed some loss of activity at high pH"}, {"measurement": "Percent Residual hNE Inhibitory Activity", "setting": "hNE [1]; Incubation pH 1.0", "value": 97, "unit": "%"}, {"measurement": "Percent Residual hNE Inhibitory Activity", "setting": "hNE [1]; Incubation pH 2.0", "value": 97, "unit": "%"}, {"measurement": "Percent Residual hNE Inhibitory Activity", "setting": "hNE [1]; Incubation pH 3.0", "value": 100, "unit": "%"}, {"measurement": "Percent Residual hNE Inhibitory Activity", "setting": "hNE [1]; Incubation pH 4.0", "value": 102, "unit": "%"}, {"measurement": "Percent Residual hNE Inhibitory Activity", "setting": "hNE [1]; Incubation pH 5.5", "value": 99, "unit": "%"}, {"measurement": "Percent Residual hNE Inhibitory Activity", "setting": "hNE [1]; Incubation pH 6.0", "value": 103, "unit": "%"}, {"measurement": "Percent Residual hNE Inhibitory Activity", "setting": "hNE [1]; Incubation pH 6.5", "value": 99, "unit": "%"}, {"measurement": "Percent Residual hNE Inhibitory Activity", "setting": "hNE [1]; Incubation pH 7.0", "value": 103, "unit": "%"}, {"measurement": "Percent Residual hNE Inhibitory Activity", "setting": "hNE [1]; Incubation pH 7.5", "value": 87, "unit": "%"}, {"measurement": "Percent Residual hNE Inhibitory Activity", "setting": "hNE [1]; Incubation pH 8.0", "value": 84, "unit": "%"}, {"measurement": "Percent Residual hNE Inhibitory Activity", "setting": "hNE [1]; Incubation pH 8.5", "value": 68, "unit": "%"}, {"measurement": "Percent Residual hNE Inhibitory Activity", "setting": "hNE [1]; Incubation pH 9.4", "value": 44, "unit": "%"}, {"measurement": "Percent Residual hNE Inhibitory Activity", "setting": "hNE [1]; Incubation pH 10.0", "value": 27, "unit": "%"}, {"measurement": "Percent Residual hNE-Inhibitory Activity", "setting": "hNE [2]; Molar Ratio CHL-T:Inhibitor 0", "value": 100, "unit": "%"}, {"measurement": "Percent Residual hNE-Inhibitory Activity", "setting": "hNE [2]; [3]", "value": 97, "unit": "%"}, {"measurement": "Percent Residual hNE-Inhibitory Activity", "setting": "hNE [2]; Molar Ratio CHL-T:Inhibitor 3.0", "value": 97, "unit": "%"}, {"measurement": "Percent Residual hNE-Inhibitory Activity", "setting": "hNE [2]; Molar Ratio CHL-T:Inhibitor 5.0", "value": 94, "unit": "%"}, {"measurement": "Percent Residual hNE-Inhibitory Activity", "setting": "hNE [2]; [4]", "value": 97, "unit": "%"}, {"measurement": "Percent Residual hNE-Inhibitory Activity", "setting": "hNE [2]; Molar Ratio CHL-T:Inhibitor 30.", "value": 100, "unit": "%"}, {"measurement": "Percent Residual hNE-Inhibitory Activity", "setting": "hNE [2]; Molar Ratio CHL-T:Inhibitor 50.", "value": 94, "unit": "%"}, {"measurement": "Percent Residual hNE-Inhibitory Activity", "setting": "hNE [2]; [5]", "value": 97, "unit": "%"}, {"measurement": "hNE-inhibition activity after exposure to Chloramine-T", "setting": "hNE [2]; all molar ratios tested (up to 50:1 for EPI-HNE-3 and EPI-HNE-4)", "value": "retain essentially complete hNE-inhibition activity"}]}, {"substance": "EPI-HNE-2: EPI-HNE-1 with four additional residues EAEA at the amino terminus, SEQ ID NO 008", "values": [{"measurement": "pH stability", "setting": "hNE [1]", "value": "stable at all pH values tested"}, {"measurement": "Percent Residual hNE Inhibitory Activity", "setting": "hNE [1]; Incubation pH 1.0", "value": 98, "unit": "%"}, {"measurement": "Percent Residual hNE Inhibitory Activity", "setting": "hNE [1]; Incubation pH 2.0", "value": 97, "unit": "%"}, {"measurement": "Percent Residual hNE Inhibitory Activity", "setting": "hNE [1]; Incubation pH 3.0", "value": 101, "unit": "%"}, {"measurement": "Percent Residual hNE Inhibitory Activity", "setting": "hNE [1]; Incubation pH 4.0", "value": 101, "unit": "%"}, {"measurement": "Percent Residual hNE Inhibitory Activity", "setting": "hNE [1]; Incubation pH 5.5", "value": 99, "unit": "%"}, {"measurement": "Percent Residual hNE Inhibitory Activity", "setting": "hNE [1]; Incubation pH 7.0", "value": 103, "unit": "%"}, {"measurement": "Percent Residual hNE Inhibitory Activity", "setting": "hNE [1]; Incubation pH 8.5", "value": 104, "unit": "%"}, {"measurement": "Percent Residual hNE Inhibitory Activity", "setting": "hNE [1]; Incubation pH 10.0", "value": 102, "unit": "%"}, {"measurement": "Percent Residual hNE-Inhibitory Activity", "setting": "hNE [2]; Molar Ratio CHL-T:Inhibitor 0", "value": 100, "unit": "%"}, {"measurement": "Percent Residual hNE-Inhibitory Activity", "setting": "hNE [2]; Molar Ratio CHL-T:Inhibitor 0.25", "value": 94, "unit": "%"}, {"measurement": "Percent Residual hNE-Inhibitory Activity", "setting": "hNE [2]; [3]", "value": 102, "unit": "%"}, {"measurement": "Percent Residual hNE-Inhibitory Activity", "setting": "hNE [2]; Molar Ratio CHL-T:Inhibitor 1.5", "value": 95, "unit": "%"}, {"measurement": "Percent Residual hNE-Inhibitory Activity", "setting": "hNE [2]; Molar Ratio CHL-T:Inhibitor 2.0", "value": 102, "unit": "%"}, {"measurement": "Percent Residual hNE-Inhibitory Activity", "setting": "hNE [2]; Molar Ratio CHL-T:Inhibitor 4.0", "value": 95, "unit": "%"}, {"measurement": "Percent Residual hNE-Inhibitory Activity", "setting": "hNE [2]; [4]", "value": 98, "unit": "%"}, {"measurement": "Percent Residual hNE-Inhibitory Activity", "setting": "hNE [2]; [5]", "value": 102, "unit": "%"}]}]}
